Results on four molecules are retold here after paper PMC3321547 (Biochemistry, 2009).

Assay [1] has as its target T1, DKH412 (Drosophila kinesin heavy chain residues 1-412, dimeric head construct) (Drosophila, UniProt P17210 1-412). Description: inhibition of basal steady state ATPase.
Assay [2] addresses T1, DKH412 (Drosophila kinesin heavy chain …). Description: FRET or BRET.
Assay [3] has the same target. Kind of assay: inhibition of mADP release from the heads.
For assay [4] the target is unchanged. Kind of assay: inhibition of basal steady state ATPase. The source holds these as a separate data set.
Assay [5] has the same target. Description: inhibition of mADP release from the heads. The source holds these as a separate data set.
For assay [6] the target is unchanged. Kind of assay: co-sedimentation.

Values joined by “and” are separate entries in the source; they are usually repeats but may differ in a detail not shown here. Equal entries are not always repeated. Some results are limits rather than exact numbers.

One may read the Kd as the concentration at which binding is half-saturated. What is called koff is the first-order rate constant of dissociation. A low value points to a long-lived complex.

The molecule AVRQKHLGRRGPQAQIAKPIRSGQGATS (domain or fragment, Drosophila) [TT927-952 (thioredoxin fusion of kinesin tail residues 927-952)] came in with a Kd in assay [1] of less than 100 nM.

B1: NF910-952mGFP (non-fusion kinesin tail peptide 910-952 with C-terminal mGFP) (domain or fragment)
chain: not shown
For B1, in assay [2], the Kd was found to be 400 nM, the koff is roughly 32 s⁻¹, the “observed rate of dissociation with a 5-fold excess of unlabelled tail (trace b)” value came to 30.9 s⁻¹ and the “observed rate of dissociation with a 20-fold excess of unlabelled tail (trace c)” value stood at 32.8 s⁻¹.

B2: NF910-952 (non-fusion kinesin tail peptide, residues 910-952) (peptide)
chain: not shown
On to B2, for which the Kd amounted to 330 nM in assay [3], 66 nM in assay [4] and 21 nM in assay [5]. Also, in assay [1], the “stoichiometry N” value is 1 tail peptide per two head peptides.

B3: TT910-952mGFP (thioredoxin fusion of kinesin tail residues 910-952 with C-terminal mGFP) (domain or fragment)
chain: not shown
As for B3, the “stoichiometry N” value in assay [6] is < 0.5 TT910-952mGFP per DKH412 monomer and ~0.5 tail peptide per head peptide.
